Values quoted from earlier work in article PMC10530976.

Biological target: Kv1.2 (UniProt P16389)
UniProt P16389, sequence (P16389 whole entry): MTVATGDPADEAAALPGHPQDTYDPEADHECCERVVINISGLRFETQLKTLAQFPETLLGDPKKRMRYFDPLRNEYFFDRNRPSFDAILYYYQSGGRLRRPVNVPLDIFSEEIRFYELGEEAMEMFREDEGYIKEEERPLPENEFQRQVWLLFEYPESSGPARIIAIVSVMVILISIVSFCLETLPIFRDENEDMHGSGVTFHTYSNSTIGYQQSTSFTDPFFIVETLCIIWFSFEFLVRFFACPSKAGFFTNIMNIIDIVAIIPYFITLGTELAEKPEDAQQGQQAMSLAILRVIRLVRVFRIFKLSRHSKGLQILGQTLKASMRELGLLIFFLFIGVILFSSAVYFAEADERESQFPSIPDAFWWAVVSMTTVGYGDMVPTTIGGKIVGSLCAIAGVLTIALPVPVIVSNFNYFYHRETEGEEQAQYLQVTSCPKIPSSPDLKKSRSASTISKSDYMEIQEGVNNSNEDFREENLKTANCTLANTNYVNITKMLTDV

Q: Which Kd does the source give for OSK2 (from UniProt P83244) here?
A: The Kd was 5.97 nM.
